# Experimental data from patent publication US20140271457A1 (AbbVie / Abbott, published 2014).
# B1: DVD3104 (bispecific antibody, IgG1)
# VH: EVQLVQSGAEVKKPGASVKVSCKASGYTFANYGIIWVRQAPGQGLEWMGWINTYTGKPTYAQKFQGRVTMTTDTSTSTAYMELSSLRSEDTAVYYCARKLFTTMDVTDNAMDYWGQGTTVTVSSASTKGPEVQLVESGGGLVQPGGSLRLSCAASGFTFSNYGVTWVRQAPGKGLEWVSMIWADGSTHYASSVKGRFTISRDNSKNTLYLQMNSLRAEDTAVYYCAREWQHGPVAYWGQGTLVTVSS
# VL: DIQMTQSPSSLSASVGDRVTITCRASQDISQYLNWYQQKPGKAPKLLIYYTSRLQSGVPSRFSGSGSGTDFTLTISSLQPEDFATYFCQQGNTWPPTFGQGTKLEIKRTVAAPDIQMTQSPSSLSASVGDRVTITCRASQLVSSAVAWYQQKPGKAPKLLIYWASARHTGVPSRFSGSGSGTDFTLTISSLQPEDFATYYCQQHYKTPFTFGQGTKLEIKR
# B2: DVD3089 (bispecific antibody, IgG1)
# VH: EVQLVQSGAEVKKPGASVKVSCKASGYTFTTYGVSWVRQAPGQGLEWMGEIYPGNYNTYYNEKFRGRVTMTTDTSTSTAYMELRSLRSDDTAVYYCARWRTSYFSDYGYFDYWGQGTTVTVSSASTKGPEVQLVESGGGLVQPGGSLRLSCAASGFTFSNYGVTWVRQAPGKGLEWVSMIWADGSTHYASSVKGRFTISRDNSKNTLYLQMNSLRAEDTAVYYCAREWQHGPVAYWGQGTLVTVSS
# VL: DVVMTQSPLSLPVTLGQPASISCRSSQSLVHSHGNTYLHWYQQRPGQSPRLLIYTVSNRFSGVPDRFSGSGSGTDFTLKISRVEAEDVGVYYCSQSTHVPYTFGGGTKVEIKRTVAAPDIQMTQSPSSLSASVGDRVTITCRASQLVSSAVAWYQQKPGKAPKLLIYWASARHTGVPSRFSGSGSGTDFTLTISSLQPEDFATYYCQQHYKTPFTFGQGTKLEIKR
# B3: DVD3091 (bispecific antibody, IgG1)
# VH: EVQLVQSGAEVKKPGASVKVSCKASGYTFTTYGVSWVRQAPGQGLEWMGEIYPGNYNTYYNEKFRGRVTMTTDTSTSTAYMELRSLRSDDTAVYYCARWRTSYFSDYGYFDYWGQGTTVTVSSASTKGPEVQLVESGGGLVQPGGSLRLSCAASGFTFSNYGVTWVRQAPGKGLEWVSMIWADGSTHYASSVKGRFTISRDNSKNTLYLQMNSLRAEDTAVYYCAREWQHGPVAYWGQGTLVTVSS
# VL: DVVMTQSPLSLPVTLGQPASISCRSSQSLVHSHGNTYLHWYQQRPGQSPRLLIYTVSNRFSGVPDRFSGSGSGTDFTLKISRVEAEDVGVYYCSQSTHVPYTFGGGTKVEIKRTVAAPSVFIFPPDIQMTQSPSSLSASVGDRVTITCRASQLVSSAVAWYQQKPGKAPKLLIYWASARHTGVPSRFSGSGSGTDFTLTISSLQPEDFATYYCQQHYKTPFTFGQGTKLEIKR
# B4: DVD3101 (bispecific antibody, IgG1)
# VH: EVQLVQSGAEVKKPGASVKVSCKASGYTFTTYGVSWVRQAPGQGLEWMGEIYPGNYNTYYNEKFRGRVTMTTDTSTSTAYMELRSLRSDDTAVYYCARWRTSYFSDYGYFDYWGQGTTVTVSSASTKGPEVQLVESGGGLVQPGGSLRLSCAASGFTFSNYGVEWVRQAPGKGLEWVSGIWADGSTHYADTVKSRFTISRDNSKNTLYLQMNSLRAEDTAVYYCAREWQHGPVAYWGQGTLVTVSS
# VL: DVVMTQSPLSLPVTLGQPASISCRSSQSLVHSHGNTYLHWYQQRPGQSPRLLIYTVSNRFSGVPDRFSGSGSGTDFTLKISRVEAEDVGVYYCSQSTHVPYTFGGGTKVEIKRTVAAPSVFIFPPDIQMTQSPSSLSASVGDRVTITCKASQLVSSAVAWYQQKPGKAPKLLIYWASTLHTGVPSRFSGSGSGTDFTLTISSLQPEDFATYYCQQHYRTPFTFGQGTKLEIKR
# B5: DVD3099 (bispecific antibody, IgG1)
# VH: EVQLVQSGAEVKKPGASVKVSCKASGYTFTTYGVSWVRQAPGQGLEWMGEIYPGNYNTYYNEKFRGRVTMTTDTSTSTAYMELRSLRSDDTAVYYCARWRTSYFSDYGYFDYWGQGTTVTVSSASTKGPEVQLVESGGGLVQPGGSLRLSCAASGFTFSNYGVEWVRQAPGKGLEWVSGIWADGSTHYADTVKSRFTISRDNSKNTLYLQMNSLRAEDTAVYYCAREWQHGPVAYWGQGTLVTVSS
# VL: DVVMTQSPLSLPVTLGQPASISCRSSQSLVHSHGNTYLHWYQQRPGQSPRLLIYTVSNRFSGVPDRFSGSGSGTDFTLKISRVEAEDVGVYYCSQSTHVPYTFGGGTKVEIKRTVAAPDIQMTQSPSSLSASVGDRVTITCKASQLVSSAVAWYQQKPGKAPKLLIYWASTLHTGVPSRFSGSGSGTDFTLTISSLQPEDFATYYCQQHYRTPFTFGQGTKLEIKR
# B6: DVD3102 (bispecific antibody, IgG1)
# VH: EVQLVQSGAEVKKPGASVKVSCKASGYTFTTYGVSWVRQAPGQGLEWMGEIYPGNYNTYYNEKFRGRVTMTTDTSTSTAYMELRSLRSDDTAVYYCARWRTSYFSDYGYFDYWGQGTTVTVSSASTKGPSVFPLAPEVQLVESGGGLVQPGGSLRLSCAASGFTFSNYGVEWVRQAPGKGLEWVSGIWADGSTHYADTVKSRFTISRDNSKNTLYLQMNSLRAEDTAVYYCAREWQHGPVAYWGQGTLVTVSS
# VL: DVVMTQSPLSLPVTLGQPASISCRSSQSLVHSHGNTYLHWYQQRPGQSPRLLIYTVSNRFSGVPDRFSGSGSGTDFTLKISRVEAEDVGVYYCSQSTHVPYTFGGGTKVEIKRTVAAPDIQMTQSPSSLSASVGDRVTITCKASQLVSSAVAWYQQKPGKAPKLLIYWASTLHTGVPSRFSGSGSGTDFTLTISSLQPEDFATYYCQQHYRTPFTFGQGTKLEIKR
# B7: DVD3108 (bispecific antibody, IgG1)
# VH: EVQLVQSGAEVKKPGASVKVSCKASGYTFTTYGVSWVRQAPGQGLEWMGEIYPGNYNTYYNEKFRGRVTMTTDTSTSTAYMELRSLRSDDTAVYYCARWRTSYFSDYGYFDYWGQGTTVTVSSGGGGSGGGGSEVQLVQSGAEVKKPGASVKVSCKASGYTFANYGIIWVRQAPGQGLEWMGWINTYTGKPTYAQKFQGRVTMTTDTSTSTAYMELSSLRSEDTAVYYCARKLFTTMDVTDNAMDYWGQGTTVTVSS
# VL: DVVMTQSPLSLPVTLGQPASISCRSSQSLVHSHGNTYLHWYQQRPGQSPRLLIYTVSNRFSGVPDRFSGSGSGTDFTLKISRVEAEDVGVYYCSQSTHVPYTFGGGTKVEIKRGGSGGGGSGDIQMTQSPSSLSASVGDRVTITCRASQDISQYLNWYQQKPGKAPKLLIYYTSRLQSGVPSRFSGSGSGTDFTLTISSLQPEDFATYFCQQGNTWPPTFGQGTKLEIKR
# B8: DVD3098 (bispecific antibody, IgG1)
# VH: EVQLVQSGAEVKKPGASVKVSCKASGYTFTTYGVSWVRQAPGQGLEWMGEIYPGNYNTYYNEKFRGRVTMTTDTSTSTAYMELRSLRSDDTAVYYCARWRTSYFSDYGYFDYWGQGTTVTVSSGGGGSGGGGSEVQLVESGGGLVQPGGSLRLSCAASGFTFSNYGVEWVRQAPGKGLEWVSGIWADGSTHYADTVKSRFTISRDNSKNTLYLQMNSLRAEDTAVYYCAREWQHGPVAYWGQGTLVTVSS
# VL: DVVMTQSPLSLPVTLGQPASISCRSSQSLVHSHGNTYLHWYQQRPGQSPRLLIYTVSNRFSGVPDRFSGSGSGTDFTLKISRVEAEDVGVYYCSQSTHVPYTFGGGTKVEIKRGGSGGGGSGDIQMTQSPSSLSASVGDRVTITCKASQLVSSAVAWYQQKPGKAPKLLIYWASTLHTGVPSRFSGSGSGTDFTLTISSLQPEDFATYYCQQHYRTPFTFGQGTKLEIKR
# B9: DVD3109 (bispecific antibody, IgG1)
# VH: EVQLVQSGAEVKKPGASVKVSCKASGYTFTTYGVSWVRQAPGQGLEWMGEIYPGNYNTYYNEKFRGRVTMTTDTSTSTAYMELRSLRSDDTAVYYCARWRTSYFSDYGYFDYWGQGTTVTVSSASTKGPEVQLVQSGAEVKKPGASVKVSCKASGYTFANYGIIWVRQAPGQGLEWMGWINTYTGKPTYAQKFQGRVTMTTDTSTSTAYMELSSLRSEDTAVYYCARKLFTTMDVTDNAMDYWGQGTTVTVSS
# VL: DVVMTQSPLSLPVTLGQPASISCRSSQSLVHSHGNTYLHWYQQRPGQSPRLLIYTVSNRFSGVPDRFSGSGSGTDFTLKISRVEAEDVGVYYCSQSTHVPYTFGGGTKVEIKRTVAAPDIQMTQSPSSLSASVGDRVTITCRASQDISQYLNWYQQKPGKAPKLLIYYTSRLQSGVPSRFSGSGSGTDFTLTISSLQPEDFATYFCQQGNTWPPTFGQGTKLEIKR
# B10: DVD3111 (bispecific antibody, IgG1)
# VH: EVQLVQSGAEVKKPGASVKVSCKASGYTFTTYGVSWVRQAPGQGLEWMGEIYPGNYNTYYNEKFRGRVTMTTDTSTSTAYMELRSLRSDDTAVYYCARWRTSYFSDYGYFDYWGQGTTVTVSSASTKGPEVQLVQSGAEVKKPGASVKVSCKASGYTFANYGIIWVRQAPGQGLEWMGWINTYTGKPTYAQKFQGRVTMTTDTSTSTAYMELSSLRSEDTAVYYCARKLFTTMDVTDNAMDYWGQGTTVTVSS
# VL: DVVMTQSPLSLPVTLGQPASISCRSSQSLVHSHGNTYLHWYQQRPGQSPRLLIYTVSNRFSGVPDRFSGSGSGTDFTLKISRVEAEDVGVYYCSQSTHVPYTFGGGTKVEIKRTVAAPSVFIFPPDIQMTQSPSSLSASVGDRVTITCRASQDISQYLNWYQQKPGKAPKLLIYYTSRLQSGVPSRFSGSGSGTDFTLTISSLQPEDFATYFCQQGNTWPPTFGQGTKLEIKR
# B11: DVD3103 (bispecific antibody, IgG1)
# VH: EVQLVQSGAEVKKPGASVKVSCKASGYTFANYGIIWVRQAPGQGLEWMGWINTYTGKPTYAQKFQGRVTMTTDTSTSTAYMELSSLRSEDTAVYYCARKLFTTMDVTDNAMDYWGQGTTVTVSSGGGGSGGGGSEVQLVESGGGLVQPGGSLRLSCAASGFTFSNYGVTWVRQAPGKGLEWVSMIWADGSTHYASSVKGRFTISRDNSKNTLYLQMNSLRAEDTAVYYCAREWQHGPVAYWGQGTLVTVSS
# VL: DIQMTQSPSSLSASVGDRVTITCRASQDISQYLNWYQQKPGKAPKLLIYYTSRLQSGVPSRFSGSGSGTDFTLTISSLQPEDFATYFCQQGNTWPPTFGQGTKLEIKRGGSGGGGSGDIQMTQSPSSLSASVGDRVTITCRASQLVSSAVAWYQQKPGKAPKLLIYWASARHTGVPSRFSGSGSGTDFTLTISSLQPEDFATYYCQQHYKTPFTFGQGTKLEIKR
# Target: Recombinant Human TNF-α/TNFSF1A (human, UniProt P01375 77-233)
# Sequence (P01375 77-233 limits assumed): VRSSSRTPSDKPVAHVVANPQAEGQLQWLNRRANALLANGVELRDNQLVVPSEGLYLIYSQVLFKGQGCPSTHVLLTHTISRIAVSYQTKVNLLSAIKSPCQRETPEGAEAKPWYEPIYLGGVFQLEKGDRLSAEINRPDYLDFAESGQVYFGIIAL
# Test: cell-based or functional assay
Binder,N-Terminal VD huTNFα Neutralization Assay IC50 [nM],C-Terminal VD huTNFα Neutralization Assay IC50 [nM]
B1,0.033,
B2,,0.52
B3,,0.192
B4,,0.308
B5,0.003,
B6,,0.294
B7,,0.183
B8,0.012,
B9,,0.731
B10,,0.146
B11,0.016,
